Bridges are numbered along the chain shown (N, C = ends).

B1: Compound 5 ([Peptide 1]-DY-651 conjugate) (peptide)
peptide: Ac-AGSCYCSGPPRFECWCYETEGTGGGK-NH2
modifications: disulfide 6-14, 4-16; not fully specified (residue 26); also: DY-651 dye attached, site not given here
B2: Compound 1 ([Peptide 1]-DY-630 conjugate) (peptide)
peptide: Ac-AGSCYCSGPPRFECWCYETEGTGGGK-NH2
modifications: disulfide 6-14, 4-16; not fully specified (residue 26); also: DY-630 dye attached, site not given here
notes: Printed in three-letter code, turned into one-letter code here
B3: Compound 2 ([Peptide 1]-DY-631 conjugate) (peptide)
peptide: Ac-AGSCYCSGPPRFECWCYETEGTGGGK-NH2
modifications: disulfide 6-14, 4-16; not fully specified (residue 26); also: DY-631 dye attached, site not given here
B4: Compound 6 ([Peptide 1]-DY-652 conjugate) (peptide)
peptide: Ac-AGSCYCSGPPRFECWCYETEGTGGGK-NH2
modifications: disulfide 6-14, 4-16; not fully specified (residue 26); also: DY-652 dye attached, site not given here
B5: Compound 4 ([Peptide 1]-DY-650 conjugate) (peptide)
peptide: Ac-AGSCYCSGPPRFECWCYETEGTGGGK-NH2
modifications: disulfide 6-14, 4-16; not fully specified (residue 26); also: DY-650 dye attached, site not given here
B6: Compound 3 ([Peptide 1]-DY-633 conjugate) (peptide)
peptide: Ac-AGSCYCSGPPRFECWCYETEGTGGGK-NH2
modifications: disulfide 6-14, 4-16; not fully specified (residue 26); also: DY-633 dye attached, site not given here

T2 sequence (P02768 25-609 limits assumed): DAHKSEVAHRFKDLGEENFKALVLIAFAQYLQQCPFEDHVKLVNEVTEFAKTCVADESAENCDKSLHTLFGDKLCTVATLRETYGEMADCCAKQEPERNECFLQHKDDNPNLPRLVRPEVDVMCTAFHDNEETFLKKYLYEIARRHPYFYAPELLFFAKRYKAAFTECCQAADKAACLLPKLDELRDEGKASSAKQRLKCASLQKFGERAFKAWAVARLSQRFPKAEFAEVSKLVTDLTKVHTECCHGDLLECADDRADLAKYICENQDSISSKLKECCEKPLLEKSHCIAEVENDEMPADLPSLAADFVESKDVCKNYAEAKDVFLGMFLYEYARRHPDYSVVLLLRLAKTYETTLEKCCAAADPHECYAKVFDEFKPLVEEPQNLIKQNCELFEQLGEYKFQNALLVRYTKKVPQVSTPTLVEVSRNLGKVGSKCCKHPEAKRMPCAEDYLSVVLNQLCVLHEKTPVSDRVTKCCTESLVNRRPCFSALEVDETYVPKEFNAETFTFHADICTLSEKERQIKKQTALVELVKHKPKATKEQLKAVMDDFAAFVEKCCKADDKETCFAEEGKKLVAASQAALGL

For one assay, the target named is T1, human c-Met/Fc chimera (R&D Systems) (human, UniProt P08581 25-932).
T1 construct: Bought from R&D Systems; Printed once as 'c-Met/Fe chimera' [sic]; also called human c-Met/Fe chimera; not shown: Fc part (and any linker or tag) of the bought chimera
T1 sequence (P08581 25-932 limits assumed, change not shown): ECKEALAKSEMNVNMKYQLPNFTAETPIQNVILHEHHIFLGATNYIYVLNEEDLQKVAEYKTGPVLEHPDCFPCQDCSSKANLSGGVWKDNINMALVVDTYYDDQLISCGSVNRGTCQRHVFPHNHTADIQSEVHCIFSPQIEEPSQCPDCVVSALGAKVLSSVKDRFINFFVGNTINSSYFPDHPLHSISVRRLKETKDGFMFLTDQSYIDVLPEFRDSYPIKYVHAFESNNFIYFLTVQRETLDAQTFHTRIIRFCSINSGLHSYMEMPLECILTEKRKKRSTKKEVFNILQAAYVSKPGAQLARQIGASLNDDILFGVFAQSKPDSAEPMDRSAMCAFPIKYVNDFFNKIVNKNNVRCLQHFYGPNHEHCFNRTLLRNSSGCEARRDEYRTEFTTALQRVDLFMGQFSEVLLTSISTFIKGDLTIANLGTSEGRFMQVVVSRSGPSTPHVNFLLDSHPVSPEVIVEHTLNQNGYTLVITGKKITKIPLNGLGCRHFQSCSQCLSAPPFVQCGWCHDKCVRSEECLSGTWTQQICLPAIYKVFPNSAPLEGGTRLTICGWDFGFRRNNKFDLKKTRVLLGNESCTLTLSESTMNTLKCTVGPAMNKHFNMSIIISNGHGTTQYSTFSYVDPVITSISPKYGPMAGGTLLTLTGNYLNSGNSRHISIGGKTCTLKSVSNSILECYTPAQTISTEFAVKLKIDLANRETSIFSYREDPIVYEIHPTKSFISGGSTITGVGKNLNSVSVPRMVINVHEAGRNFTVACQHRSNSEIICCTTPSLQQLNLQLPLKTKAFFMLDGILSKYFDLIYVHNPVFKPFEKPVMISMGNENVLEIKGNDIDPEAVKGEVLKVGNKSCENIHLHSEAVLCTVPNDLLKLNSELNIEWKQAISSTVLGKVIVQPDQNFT
The experiment in a line: fluorescence polarisation (anisotropy), 5 nM dye-labelled peptide, c-Met/Fc 0-250 nM, one-site fit. On the procedure:
The fluorescence anisotropy measurements were performed in 384-well microplates in a volume of 10 μL in binding buffer (PBS, 0.01% Tween-20, pH 7.5) using a Tecan Safire fluorescence polarisation plate reader (Tecan, US) at Ex 635/Em 678 nm. The to concentration of dye-labelled peptide was held constant (5 nM) and the concentration of the human c-Met/Fe chimera (R&D Systems) was varied from 0-250 nM. Binding mixtures were equilibrated in the microplate for 10 min at 30° C. The observed change in anisotropy was fit to the equation
In general terms: Fluorescence polarisation rises when a labelled molecule tumbles more slowly, as on binding a larger partner.
Broadly, the Kd is the constant that tells how readily two partners part at equilibrium. Low values mean tighter binding, high ones weaker binding. For the molecule B1, the affinity, expressed as Kd, was 2.2 nM. In other words, the single-digit nanomolar range.
Same read-out and setting: with B2 the figure was 2.2 nM; with B3, 0.5 nM.
Still for that read-out and setting: next, B4: 0.9 nM; B5: 3.2 nM.
On the same count and under the same terms, with B6 the figure was 0.5 nM.

A further assay has as its target T2, human serum albumin (human, UniProt P02768 25-609).
T2 construct: also called HSA; plasma protein (PPB)
The experiment in a line: fluorescence polarisation, change of polarisation value with human serum albumin.
In turn, B1 registered a PPB (% change in polarisation value) of 49%.
On the same count and under the same terms, with B2 the figure was 36%; with B3, 33%.
For the molecule B4, the “PPB (% change in polarisation value)” value was determined as 46%.
On the same count and under the same terms, next, B5: 55%.
B6: the “PPB (% change in polarisation value)” value came to 27%.

The record behind these values is patent publication US20100178253A1 (published 2010).
